Experimental findings from the supplement of paper PMC9170038 are described below.

For the series, the system named is K4 kissing-loop RNA reporter. Kind of series: apparent KD of K4 kissing-loop reporter; higher = weaker reporter binding. The settings on record: Eterna round: R107. How it is done:
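RNA-MaP round R107: designed RNA switches with theophylline, tryptophan, arginine or FMN aptamers are transcribed on-chip within common flanks. They are titrated with a labelled K4 kissing-loop RNA reporter in RNA-MaP buffer (100 mM Tris pH 7.5, 80 mM KCl, 4 mM MgCl2), without ligand or with the indicated ligand. Median apparent KD per design.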

[1] abbreviates: input ligand: theophylline 20 uM.
The mark [2] stands for this setting: input ligand: tryptophan 2.4 mM.
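Further: bound reporter read as fluorescence of individual clusters on recovered sequencing chips by microscopy, with normalized cluster intensities fitted with a binding model.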

In the case of “UGAUGUUUAGUUCACCCAGUGAUGUUGGAAGGAGCGUGCGAAAGCACAGGUAGGUCGCCAACCUAAAAGUGUCUUGAUUAUCUAA [JR_Nu_ExcArginiA_Sub028]”, the “apparent KD of K4 kissing-loop reporter” value runs as follows: (input ligand: FMN 200 uM) 352 nM; (input ligand: arginine 13.2 mM) 317 nM; (input ligand: none) 444 nM; under setting [1], 460 nM; under setting [2], 289 nM.

In the case of “UGAUUUAACUGAAGGAGCGGCAAUUGAUAAGUAAAUAUAGUGAUGUUAUAUAAGAUAGAGAGCCAGGUAGGUCGCAGAGGGAGGA [ExArgB.J]”, the “apparent KD of K4 kissing-loop reporter” value by setting is: (input ligand: FMN 200 uM) 169 nM; (input ligand: arginine 13.2 mM) 139 nM; (input ligand: none) 159 nM; under setting [1], 159 nM; under setting [2], 129 nM.

Consider “UGAUUUAACUGAAGGAGCGGCAAUUGAUAAGUAAAUAUAGUGAUGUUAUAUAAGAUAGAGAGCCAGGUAGGUCGCAGAGGUAGGA [ExArgB.K]”, for which the “apparent KD of K4 kissing-loop reporter” value is, setting by setting: (input ligand: FMN 200 uM) 193 nM; (input ligand: arginine 13.2 mM) 139 nM; (input ligand: none) 152 nM; under setting [1], 178 nM; under setting [2], 127 nM.

Consider “UGCACGGGCUCGGCCGCCACUCCAGCGGGUCGCAAGGUCCGCUACUGAGUGAUGUUCGGUUGGAGGAGGACCGGGAGCCCGUGCG [#2 Exclusion - Tryptophan B Attempt #31 (HarryS)]”, for which the “apparent KD of K4 kissing-loop reporter” value is, setting by setting: (input ligand: FMN 200 uM) 146 nM; (input ligand: arginine 13.2 mM) 114 nM; (input ligand: none) 133 nM; under setting [1], 139 nM; under setting [2], 126 nM.

Consider “UGCACGUAGUGAUGUUACAGCAAGUUUAUGAAGGAUAUGAGGUUAGUCAGAAGGUCAGCCGUCUCGUUGUAAGCACCUUAUCAUU [theeternabot_exclusion_KL_FMN_A_14]”, for which the “apparent KD of K4 kissing-loop reporter” value is, setting by setting: (input ligand: FMN 200 uM) 305 nM; (input ligand: arginine 13.2 mM) 144 nM; (input ligand: none) 232 nM; under setting [1], 158 nM; under setting [2], 155 nM.

Regarding “UGCAGUGAUGUUGCUAUUUGUCUUGAUUAACGAGGACCGGUACGGCCGCCACUCGAUUUCUCUCUAAUCGAGUAUGUUGUUUAGU [#19 K4 Tryptophan A Exclusion]”, the “apparent KD of K4 kissing-loop reporter” value (input ligand: FMN 200 uM) was found to be 153 nM; the “apparent KD of K4 kissing-loop reporter” value (input ligand: arginine 13.2 mM) worked out at 184 nM; the “apparent KD of K4 kissing-loop reporter” value (input ligand: none) is 162 nM; the “apparent KD of K4 kissing-loop reporter” value under setting [1] is 203 nM; the “apparent KD of K4 kissing-loop reporter” value under setting [2] stood at 114 nM.

With “UGCAGUGAUGUUGCUAUUUUUCUUGAUUAACGAGGACCGGUACGGCCGCCACUCGAUUUCUCUCUAAUCCAGUAUGUUGUUUAGU [JR_ExcTryptoA_Sub001]”, the “apparent KD of K4 kissing-loop reporter” value was 111 nM (input ligand: FMN 200 uM); 144 nM (input ligand: arginine 13.2 mM); 121 nM (input ligand: none); 140 nM under setting [1]; 90.4 nM under setting [2].

Take “UGCAUGCGUAGAGUGAUGUUCUAAGAUGAUACCAGUGCGGAAACGCACCCUUGGCAGCAUCUGACUGCAUGCACGUCGAAAGACG”: the “apparent KD of K4 kissing-loop reporter” value came out at 718 nM (input ligand: FMN 200 uM); 666 nM (input ligand: arginine 13.2 mM); 826 nM (input ligand: none); 399 nM under setting [1]; 598 nM under setting [2].

With “UGCAUGCUUGUAGUGAUGUUACAAGAUGAUACCAGUGCUUUUUUGCACCCUUGGCAGCGUCAUAGUGCAUGCACGUCGAAAGACG”, the “apparent KD of K4 kissing-loop reporter” value reads like this: (input ligand: FMN 200 uM) 219 nM; (input ligand: arginine 13.2 mM) 153 nM; (input ligand: none) 211 nM; under setting [1], 320 nM; under setting [2], 201 nM.

“UGCUUAAUGGAAGGAUAUUAGGGUUCGACCGCGUAUCAUUGUUAGUCUGGCCAGUGAUGUUGGCCUUAAGAAGGUCCGCUACGGU [theeternabot_exclusion_KL_FMN_B_27]”: the “apparent KD of K4 kissing-loop reporter” value (input ligand: FMN 200 uM) was determined as 207 nM; the “apparent KD of K4 kissing-loop reporter” value (input ligand: arginine 13.2 mM) was 201 nM; the “apparent KD of K4 kissing-loop reporter” value (input ligand: none) is 171 nM; the “apparent KD of K4 kissing-loop reporter” value under setting [1] is 204 nM; the “apparent KD of K4 kissing-loop reporter” value under setting [2] is 130 nM.

For “UGCUUUAUCAGAAGGAGCGCGUUGGUCAUAAUAAUAAUCAGUGAUGUUGAUAUAUGAGGAUUGCAGGUAGGUCGCUGAUAUAGCU [KL-XARG-B1]”, the “apparent KD of K4 kissing-loop reporter” value was found to be 323 nM (input ligand: FMN 200 uM); 210 nM (input ligand: arginine 13.2 mM); 390 nM (input ligand: none); 255 nM under setting [1]; 229 nM under setting [2].

As to “UGGACAUGACUCGAUAAGAGUCAAUGGGAUACCAGUGACGAAAGUCACCCUUGGCAGCUCAACUGCCAGUGAUGUUGGUAGUCCU [Astros-Elimod]”, the “apparent KD of K4 kissing-loop reporter” value is 205 nM (input ligand: FMN 200 uM); 119 nM (input ligand: arginine 13.2 mM); 207 nM (input ligand: none); 157 nM under setting [1]; 125 nM under setting [2].

Regarding “UGGACCAAGGAGUGAUGUUCCAAAUGUGAUACCAGCCACGAAAGUGGCCCUUGGCAGCACUGCCAGGACGAAAACGUCCGGUCCU [#SwitchBubble 12 #StaticStem #K4Early]”, the “apparent KD of K4 kissing-loop reporter” value reads like this: (input ligand: FMN 200 uM) 358 nM; (input ligand: arginine 13.2 mM) 367 nM; (input ligand: none) 391 nM; under setting [1], 777 nM; under setting [2], 261 nM.

As for “UGGACCAAGGAGUGAUGUUCCAUAUGUGAUACCAGCCACGAAAGUGGCCCUUGGCAGCACUGCCAGGACGAAAACGUCCGGUCCU [#SwitchBubble 13 #StaticStem #K4Early]”, the “apparent KD of K4 kissing-loop reporter” value by setting is: (input ligand: FMN 200 uM) 390 nM; (input ligand: arginine 13.2 mM) 346 nM; (input ligand: none) 503 nM; under setting [1], 477 nM; under setting [2], 321 nM.

On to “UGGACCAGGAGUGAUGUUCCAAAAUGUGAUACCAGCCACGAAAGUGGCCCUUGGCAGCACUGCCAGGACGAAAACGUCCGGUCCU [#SwitchBubble 11 #StaticStem #K4Early]”, for which the “apparent KD of K4 kissing-loop reporter” value was 285 nM (input ligand: FMN 200 uM); 191 nM (input ligand: arginine 13.2 mM); 278 nM (input ligand: none); 268 nM under setting [1]; 154 nM under setting [2].

Consider “UGGACGUUAUACAAUAAGUAUAACUGGGAUACCAGUGACGAAAGUCACCCUUGGCAGCUCAACUGCCAGUGAUGUUGGUAGUCCA [Astros-Eli-mod#5]”, for which the “apparent KD of K4 kissing-loop reporter” value is, setting by setting: (input ligand: FMN 200 uM) 273 nM; (input ligand: arginine 13.2 mM) 116 nM; (input ligand: none) 200 nM; under setting [1], 235 nM; under setting [2], 161 nM.

With “UGGAGUUGACGAAAAGUCAACUCCGGAGAAGGAGCGGACGAAAGUCCAGGUAGGUCGCUCCCUACCAGUGAUGUUGGUACUGAAA”, the “apparent KD of K4 kissing-loop reporter” value is, setting by setting: (input ligand: FMN 200 uM) 244 nM; (input ligand: arginine 13.2 mM) 241 nM; (input ligand: none) 209 nM; under setting [1], 319 nM; under setting [2], 181 nM.

Turning to “UGGAUAUAGUGAUGUUAUAUAGAGAUGGAUACCAGUUAAGAGAAUAGCCCUUGGCAGCCGAAAGAAGUAUCAUUAGAGAAGAAUG [ExTheophyl.Ad]”, the “apparent KD of K4 kissing-loop reporter” value (input ligand: FMN 200 uM) was found to be 261 nM; the “apparent KD of K4 kissing-loop reporter” value (input ligand: arginine 13.2 mM) stood at 183 nM; the “apparent KD of K4 kissing-loop reporter” value (input ligand: none) was 239 nM; the “apparent KD of K4 kissing-loop reporter” value under setting [1] is 194 nM; the “apparent KD of K4 kissing-loop reporter” value under setting [2] came to 195 nM.

With “UGGAUAUAGUGAUGUUAUAUAGAGAUGGAUACCAGUUGAGAGAAUAGCCCUUGGCAGCCGAAAGAAGUAUCAUUAGAGAAGAAUG [ExTheophyl.Ak]”, the “apparent KD of K4 kissing-loop reporter” value reads like this: (input ligand: FMN 200 uM) 269 nM; (input ligand: arginine 13.2 mM) 200 nM; (input ligand: none) 230 nM; under setting [1], 219 nM; under setting [2], 173 nM.

Take “UGGAUAUAGUGAUGUUAUAUAGAGAUGGAUACCAGUUUAGAGAAGAGCCCUUGGCAGCCGAAAGAAGUAUCAUUAGAGAAGAAUG [ExTheophyl.Al]”: the “apparent KD of K4 kissing-loop reporter” value stood at 257 nM (input ligand: FMN 200 uM); 164 nM (input ligand: arginine 13.2 mM); 214 nM (input ligand: none); 212 nM under setting [1]; 179 nM under setting [2].

Regarding “UGGAUAUAGUGAUGUUAUAUAGAGAUUGAUACCAGUUAAGAGAAUAGCCCUUGGCAGCAGAAAGAAGUAUCAUUAGAGAAGAAUG [ExTheophyl.Ac]”, the “apparent KD of K4 kissing-loop reporter” value was found to be 256 nM (input ligand: FMN 200 uM); 182 nM (input ligand: arginine 13.2 mM); 222 nM (input ligand: none); 213 nM under setting [1]; 177 nM under setting [2].
